Measurements taken from IntAct's records for PubMed 24863370.

B1: Calvin cycle protein CP12, chloroplastic (Chlamydomonas reinhardtii), A6Q0K5 (parent)
chain: MMLTKSVVISRPAVRPVSTRRAVVVRASGQPAVDLNKKVQDAVKEAEDACAKGTSADCAVAWDTVEELSAAVSHKKDAVKADVTLTDPLEAFCKDAPDADECRVYED
partner: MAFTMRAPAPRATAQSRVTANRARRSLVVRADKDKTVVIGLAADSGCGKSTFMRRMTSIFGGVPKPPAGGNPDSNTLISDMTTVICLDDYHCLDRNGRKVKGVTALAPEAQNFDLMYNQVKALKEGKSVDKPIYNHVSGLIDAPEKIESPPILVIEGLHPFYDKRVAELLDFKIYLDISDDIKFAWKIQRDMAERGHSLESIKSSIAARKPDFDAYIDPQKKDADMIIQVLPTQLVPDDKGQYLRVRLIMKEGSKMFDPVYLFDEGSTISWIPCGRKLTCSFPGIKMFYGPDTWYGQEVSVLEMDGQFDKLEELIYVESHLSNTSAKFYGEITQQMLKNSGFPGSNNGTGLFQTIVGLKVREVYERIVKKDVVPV
B2: Calvin cycle protein CP12, chloroplastic (Chlamydomonas reinhardtii), A6Q0K5 (parent)
chain: B1 chain
partner: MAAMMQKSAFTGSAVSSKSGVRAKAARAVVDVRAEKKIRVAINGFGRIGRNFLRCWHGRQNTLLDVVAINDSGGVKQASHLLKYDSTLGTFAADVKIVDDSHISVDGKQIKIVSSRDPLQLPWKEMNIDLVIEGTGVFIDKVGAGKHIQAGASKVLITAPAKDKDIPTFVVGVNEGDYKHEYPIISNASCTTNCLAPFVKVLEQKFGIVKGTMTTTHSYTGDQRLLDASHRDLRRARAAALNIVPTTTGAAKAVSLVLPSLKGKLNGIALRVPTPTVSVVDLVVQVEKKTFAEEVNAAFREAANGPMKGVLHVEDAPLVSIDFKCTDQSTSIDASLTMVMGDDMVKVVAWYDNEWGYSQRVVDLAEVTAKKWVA

Variants of: B1
Details: with kppr_chlre PRKA

| Variant | effect of a mutation on the interaction |
| --- | --- |
| P31S | decreasing interaction |

Variants of: B2
Details: with g3pa_chlre GAPA

| Variant | effect of a mutation on the interaction |
| --- | --- |
| K75S | decreasing interaction |
